Holding throughout (experiment): holdup assay
Holding throughout (design): key: below the threshold = too weak to quantify, mostly under pKd 3.1 to 4

Experiment [1] has as its target DVL2, O14641.
Experiment [2] addresses T1, USH1C_3, Q9Y6N9.
T1 sequence (Q9Y6N9 447-547, limits assumed, looked up): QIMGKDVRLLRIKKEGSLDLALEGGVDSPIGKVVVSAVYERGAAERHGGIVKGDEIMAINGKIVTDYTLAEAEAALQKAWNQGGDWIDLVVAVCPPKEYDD

The target of experiment [3] is NHERF2_1, Q15599.
The target in experiment [4] is T2, PARD6G, Q9BYG4.
T2 sequence (Q9BYG4 153-261, limits assumed, looked up): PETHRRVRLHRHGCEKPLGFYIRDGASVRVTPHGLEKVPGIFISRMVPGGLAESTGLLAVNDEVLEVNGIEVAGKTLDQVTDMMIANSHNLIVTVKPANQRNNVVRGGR

The target of experiment [5] is DLG5_2, Q8TDM6.
The target of experiment [6] is T3, PDZRN3_2, Q9UPQ7.
T3 sequence (Q9UPQ7 414-513, limits assumed, looked up): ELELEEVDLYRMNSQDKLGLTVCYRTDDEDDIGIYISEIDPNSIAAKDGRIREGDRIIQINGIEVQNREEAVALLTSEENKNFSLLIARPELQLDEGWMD

Experiment [7] addresses T4, MPDZ_3, O75970.
T4 sequence (O75970 372-473, limits assumed, looked up): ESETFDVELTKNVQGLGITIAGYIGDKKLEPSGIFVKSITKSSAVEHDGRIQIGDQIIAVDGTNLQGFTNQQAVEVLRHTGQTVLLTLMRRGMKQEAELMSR

In experiment [8] the target is T5, MPP1, Q00013.
T5 sequence (Q00013 66-162, limits assumed, looked up): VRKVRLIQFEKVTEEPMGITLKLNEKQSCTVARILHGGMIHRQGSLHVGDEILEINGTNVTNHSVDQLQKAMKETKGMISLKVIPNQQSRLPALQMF

Experiment [9] deals with T6, SHANK2, Q9UPX8.
T6 sequence (Q9UPX8 621-730, limits assumed, looked up): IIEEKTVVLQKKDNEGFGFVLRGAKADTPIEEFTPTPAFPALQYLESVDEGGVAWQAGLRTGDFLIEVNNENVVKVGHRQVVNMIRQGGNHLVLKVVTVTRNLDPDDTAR

The target of experiment [10] is T7, PTPN13_5, Q12923.
T7 sequence (Q12923 1877-1975, limits assumed, looked up): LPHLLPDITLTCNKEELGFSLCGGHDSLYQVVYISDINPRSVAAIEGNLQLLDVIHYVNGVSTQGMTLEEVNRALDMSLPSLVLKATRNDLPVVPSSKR

For experiment [11], the target named is T8, PDZD7_2, Q9H5P4.
T8 sequence (Q9H5P4 205-303, limits assumed, looked up): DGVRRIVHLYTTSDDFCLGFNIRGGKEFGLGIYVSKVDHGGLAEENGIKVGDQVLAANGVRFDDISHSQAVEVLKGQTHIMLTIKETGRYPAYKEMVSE

Experiment [12] addresses T9, SYNPO2L, Q9H987.
T9 sequence (Q9H987 1-98, limits assumed, looked up): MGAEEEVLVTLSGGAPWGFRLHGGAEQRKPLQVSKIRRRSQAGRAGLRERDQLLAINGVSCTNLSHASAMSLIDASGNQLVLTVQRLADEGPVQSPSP

Experiment [13] deals with CARD14, Q9BXL6.
The target of experiment [14] is IL16_2, Q14005.
Experiment [15] concerns the target SCRIB_4, Q14160.
The target in experiment [16] is T10, TJP3_2, O95049.
T10 sequence (O95049 190-282, limits assumed, looked up): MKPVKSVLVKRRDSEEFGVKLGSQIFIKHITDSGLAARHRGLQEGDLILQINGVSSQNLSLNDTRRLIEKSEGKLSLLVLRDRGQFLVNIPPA

Experiment [17] has as its target T11, GIPC1, O14908.
T11 sequence (O14908 128-223, limits assumed, looked up): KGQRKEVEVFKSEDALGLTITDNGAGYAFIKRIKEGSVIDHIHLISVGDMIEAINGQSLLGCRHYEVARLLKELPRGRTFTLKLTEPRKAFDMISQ

The target in experiment [18] is MAGI1_4, Q96QZ7.
Experiment [19] concerns the target CNKSR3, Q6P9H4.
Experiment [20] addresses T12, PDZD2_1, O15018.
T12 sequence (O15018 80-192, limits assumed, looked up): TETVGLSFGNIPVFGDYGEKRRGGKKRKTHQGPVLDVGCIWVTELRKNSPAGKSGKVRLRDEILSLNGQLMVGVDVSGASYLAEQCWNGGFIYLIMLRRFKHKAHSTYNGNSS

Experiment [21] addresses T13, NHERF1_1, O14745.
T13 sequence (O14745 9-104, limits assumed, looked up): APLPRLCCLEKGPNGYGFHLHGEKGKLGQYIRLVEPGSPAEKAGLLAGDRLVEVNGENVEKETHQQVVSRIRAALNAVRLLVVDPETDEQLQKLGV

The target in experiment [22] is T14, MPDZ_11, O75970.
T14 sequence (O75970 1720-1817, limits assumed, looked up): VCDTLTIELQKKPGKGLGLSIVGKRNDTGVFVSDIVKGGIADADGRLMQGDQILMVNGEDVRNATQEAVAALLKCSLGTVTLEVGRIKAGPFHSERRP

Where [23] appears, read: plain residues with an end cap or a label only (N-terminal biotin on a linker: ttds).
The mark [24] stands for this setting: plain residues with an end cap or a label only (N-terminal biotin on a linker: none).

Sequence of DLG5_2, Q8TDM6 (Q8TDM6 714-800): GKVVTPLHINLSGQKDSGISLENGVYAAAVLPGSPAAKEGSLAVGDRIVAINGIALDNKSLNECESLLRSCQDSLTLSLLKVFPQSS
Sequence of CNKSR3, Q6P9H4 (Q6P9H4 203-303): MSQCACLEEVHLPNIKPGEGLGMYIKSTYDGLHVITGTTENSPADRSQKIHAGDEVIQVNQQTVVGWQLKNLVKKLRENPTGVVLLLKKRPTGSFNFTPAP
Sequence of DVL2, O14641 (O14641 260-359): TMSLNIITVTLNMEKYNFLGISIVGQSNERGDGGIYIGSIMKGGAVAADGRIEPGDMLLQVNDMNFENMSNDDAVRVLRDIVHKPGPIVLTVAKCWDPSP
Sequence of MAGI1_4, Q96QZ7 (Q96QZ7 other isoform, or with tags, fused parts or gaps): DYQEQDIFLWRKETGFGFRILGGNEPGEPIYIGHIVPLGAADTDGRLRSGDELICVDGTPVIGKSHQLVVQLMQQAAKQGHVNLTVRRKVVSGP
Sequence of SCRIB_4, Q14160 (Q14160 1095-1204): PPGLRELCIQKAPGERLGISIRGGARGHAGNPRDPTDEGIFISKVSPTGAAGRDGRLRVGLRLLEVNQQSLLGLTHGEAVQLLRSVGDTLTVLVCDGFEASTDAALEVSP
Sequence of IL16_2, Q14005 (Q14005 350-450): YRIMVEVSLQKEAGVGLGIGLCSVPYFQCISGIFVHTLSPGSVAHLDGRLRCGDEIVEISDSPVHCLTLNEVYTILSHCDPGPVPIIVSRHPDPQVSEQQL
Sequence of NHERF2_1, Q15599 (Q15599 9-91): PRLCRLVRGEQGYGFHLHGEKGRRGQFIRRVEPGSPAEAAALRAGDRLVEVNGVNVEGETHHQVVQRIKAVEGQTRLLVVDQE
Sequence of CARD14, Q9BXL6 (Q9BXL6 558-663): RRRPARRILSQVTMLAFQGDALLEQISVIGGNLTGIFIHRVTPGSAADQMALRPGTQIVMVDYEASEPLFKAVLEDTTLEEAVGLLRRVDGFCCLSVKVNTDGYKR

For RTRQRNETQV [HPV51-E6, P26554], the pKd is 4.59 in experiment [1] (setting [23]); 4.16 in [2] (setting [23]); “below the threshold” in experiment [3] (setting [23]); “below the threshold” in [4] (setting [23]); 4.63 in experiment [5] (setting [23]); 4.16 in [6] (setting [23]). Further, the pKd result was “below the threshold” in experiment [7] (setting [23]); 5.81 in experiment [8] (setting [23]); “below the threshold” in [9] (setting [23]); “below the threshold” in experiment [10] (setting [23]); “below the threshold” in experiment [11] (setting [23]); “below the threshold” in experiment [12] (setting [23]). The pKd in experiment [13] (setting [23]) is 4.34; in [14] (setting [23]) it was “below the threshold”; in [15] (setting [23]), 4.27; in [16] (setting [23]) it was “below the threshold”; in experiment [17] (setting [23]) it was 5.1; in experiment [18] (setting [23]), “below the threshold”. Moreover, the pKd entry in experiment [19] (setting [23]), in experiment [20] (setting [23]), in experiment [21] (setting [23]) and in [22] (setting [23]) was “below the threshold” throughout.
On to DSKPPLPPDEWV [MERS-E, K9N5R3], for which the pKd result in experiment [1] (setting [24]) was “below the threshold”; in experiment [2] (setting [24]) it was “below the threshold”; in experiment [3] (setting [24]), “below the threshold”; in experiment [4] (setting [24]) it was “below the threshold”; in [5] (setting [24]), 4; in experiment [6] (setting [24]), “below the threshold”. Besides, the pKd result is “below the threshold” in [7] (setting [24]); “below the threshold” in experiment [8] (setting [24]); “below the threshold” in experiment [9] (setting [24]); “below the threshold” in experiment [10] (setting [24]); “below the threshold” in [11] (setting [24]); 4.16 in experiment [12] (setting [24]). Besides, the pKd result in experiment [13] (setting [24]) is “below the threshold”; in experiment [14] (setting [24]), “below the threshold”; in experiment [15] (setting [24]), 3.92; in experiment [16] (setting [24]), “below the threshold”; in experiment [17] (setting [24]) it was “below the threshold”; in experiment [18] (setting [24]), “below the threshold”. For the same molecule, the pKd entry in experiment [19] (setting [24]), in experiment [20] (setting [24]), in [21] (setting [24]) and in experiment [22] (setting [24]) was “below the threshold” in each case.
As for DPLTPSRSQL [DGKK, Q5KSL6], the pKd in experiment [1] (setting [23]) was 4.14; in [2] (setting [23]), “below the threshold”; in experiment [3] (setting [23]) it was “below the threshold”; in experiment [4] (setting [23]), “below the threshold”; in experiment [5] (setting [23]) it was “below the threshold”; in experiment [6] (setting [23]), 4.11. The pKd entry in [7] (setting [23]), in [8] (setting [23]), in experiment [9] (setting [23]), in [10] (setting [23]), in [11] (setting [23]) and in experiment [12] (setting [23]) was “below the threshold” throughout. Besides, the pKd entry in [13] (setting [23]), in experiment [14] (setting [23]), in experiment [15] (setting [23]), in experiment [16] (setting [23]), in experiment [17] (setting [23]) and in [18] (setting [23]) was “below the threshold” each time. Besides, the pKd entry in [19] (setting [23]), in [20] (setting [23]), in [21] (setting [23]) and in experiment [22] (setting [23]) was “below the threshold” in each case.
As to HRTCYLVTQL [ASIC3, Q9UHC3], the pKd result in experiment [1] (setting [23]) is “below the threshold”; in experiment [2] (setting [23]), “below the threshold”; in [3] (setting [23]), 4.56; in experiment [4] (setting [23]), “below the threshold”; in [5] (setting [23]) it was “below the threshold”; in [6] (setting [23]), “below the threshold”. The pKd in experiment [7] (setting [23]) is 4.04; in [8] (setting [23]) it was 4.4; in experiment [9] (setting [23]) it was 4.93; in experiment [10] (setting [23]) it was “below the threshold”; in [11] (setting [23]), “below the threshold”; in experiment [12] (setting [23]), “below the threshold”. Moreover, the pKd entry in experiment [13] (setting [23]), in experiment [14] (setting [23]), in experiment [15] (setting [23]), in experiment [16] (setting [23]), in experiment [17] (setting [23]) and in [18] (setting [23]) was “below the threshold” each time. Also, the pKd entry in [19] (setting [23]) was “below the threshold”; in experiment [20] (setting [23]), “below the threshold”; in experiment [21] (setting [23]), 5.23; in [22] (setting [23]), “below the threshold”.

In general, pKd refers to −log10 of the Kd, conventionally taken in molar units.

These data come from publication PMC9482650, “Quantitative fragmentomics allow affinity mapping of interactomes” (Nature Communications, 2022).
